Results taken from article PMC3323627.

Molecular target: Tula virus (TULV) nonstructural protein NSs, strain Lodz, in infected cells (Tula virus, strain Lodz)
Experiment: FRET or BRET

ACBD3 protein, endogenous in common vole (Microtus arvalis) kidney cells (natural protein)
FRET efficiency: 20%
